Data as given in patent US20250152742A1, “COMPOSITIONS AND METHODS FOR NEUROLOGICAL DISEASES” (Trames Bio, Inc., priority 2022, published 2025).

Test system: engineered chimeric receptor SEQ ID NO: 33 and its mutants (human α7-nAChR ligand binding domain / human GlyRα1 ion pore domain) in Lenti-X 293T cells
Experiment: YFP fluorescence quenching anion reporter plate reader assay (percent quench, EC50)
Format: cell-based
Details: for YFP fluorescence quenching using CNL001 (percent quench): receptor named in row; for YFP fluorescence quenching using Facinicline, 30 nM fac: ligand Facinicline 30 nM; for YFP fluorescence quenching using Facinicline, 300 nM fac: ligand Facinicline 300 nM; for YFP fluorescence quenching using Facinicline, 30 uM fac: ligand Facinicline 30 uM; for YFP fluorescence quenching using TC-6987, 1 uM tc6987: ligand TC-6987 1 uM; for YFP fluorescence quenching using TC-6987, 10 uM tc6987: ligand TC-6987 10 uM; for YFP fluorescence quenching using TC-6987, 500 uM tc6987: ligand TC-6987 500 uM
Outline: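 Percent quench compares mean YFP signal over the final 10 s with the 15 s baseline before ligand, added in iodide-containing extracellular solution (pH 7.2). Cells were LX293T carrying a YFP anion reporter, transiently transfected with the channel construct; plates were preincubated 30 min at 37 °C.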

[1] = 1 nM CNL001, first column so headed
[2] = 1 nM CNL001, second column so headed
[3] = 10 nM CNL001, first column so headed
[4] = 10 nM CNL001, second column so headed
[5] = 50 nM CNL001, first column so headed
[6] = 50 nM CNL001, second column so headed
[7] = 100 nM CNL001, first column so headed
[8] = 100 nM CNL001, second column so headed
[9] = 1 uM CNL001, first column so headed
[10] = 1 uM CNL001, second column so headed

B1: CODA805: engineered receptor: Y115D, S170T in SEQ ID NO: 33 (protein)
chain: MRCSPGGVWLALAASLLHVSLQGEFQRKLYKELVKNYNPLERPVANDSQPLTVYFSLSLLQIMDVDEKNQVLTTNIWLQMSWTDHYLQWNVSEYPGVKTVRFPDGQIWKPDILLDNSADERFDATFHTNVLVNSSGHCQYLPPGIFKSSCPMDLKNFPMDVQTCKLKFGTWSYGGWSLDLQMQEADISGYIPNGEWDLVGIPGKRSERFYECCKEPYPDVTFTVTMRRRMGYYLIQMYIPSLLIVILSWISFWINMDAAPARVGLGITTVLTMTTQSSGSRASLPKVSYVKAIDIWMAVCLLFVFSALLEYAAVNFVSRQHKELLRFRRKRRHHKSPMLNLFQEDEAGEGRFNFSAYGMGPACLQAKDGISVKGANNSNTTNPPPAPSKSPEEMRKLFIQRAKKIDKISRIGFPMAFLIFNMFYWIIYKIVRREDVHNQ
modifications: synthetic sequence of chimeric LGIC
B1 was tested, and the “YFP fluorescence quenching using CNL001 (percent quench)” value [1] was −10.729%, the “YFP fluorescence quenching using CNL001 (percent quench)” value [2] was −15.278% and the “YFP fluorescence quenching using TC-5619/Bradanicline (percent quench)” value (1 nM brd (TC-5619/Bradanicline)) was −9.78%. For the same molecule, the “YFP fluorescence quenching using TC-5619/Bradanicline (percent quench)” value (3 nM brd (TC-5619/Bradanicline)) was −12.06%, the “YFP fluorescence quenching using CNL001 (percent quench)” value [3] was −20.403% and the “YFP fluorescence quenching using CNL001 (percent quench)” value [4] was −14.905%. For the same molecule, the “YFP fluorescence quenching using TC-5619/Bradanicline (percent quench)” value (10 nM brd (TC-5619/Bradanicline)) was −9.02%, the “YFP fluorescence quenching using TC-5619/Bradanicline (percent quench)” value (30 nM brd (TC-5619/Bradanicline)) was −16.3% and the “YFP fluorescence quenching using CNL001 (percent quench)” value [5] was −14.303%. For the same molecule, the “YFP fluorescence quenching using CNL001 (percent quench)” value [6] was −15.741%, the “YFP fluorescence quenching using ABT-126 (percent quench)” value (50 nM abt (ABT-126)) was −11.83% and the “YFP fluorescence quenching using CNL001 (percent quench)” value [7] was −12.637%. For the same molecule, the “YFP fluorescence quenching using CNL001 (percent quench)” value [8] was −10.606%, the “YFP fluorescence quenching (percent quench)” value (100 nM CNL002) was −18.17% and the “YFP fluorescence quenching using ABT-126 (percent quench)” value (100 nM abt (ABT-126)) was −11.5%. The “YFP fluorescence quenching using AZD-0328 (percent quench)” value (100 nM azd0328) was −0.71%, the “YFP fluorescence quenching using TC-5619/Bradanicline (percent quench)” value (100 nM brd (TC-5619/Bradanicline)) was −7.44% and the “YFP fluorescence quenching using ABT-126 (percent quench)” value (300 nM abt (ABT-126)) was −8.01%. The “YFP fluorescence quenching using AZD-0328 (percent quench)” value (300 nM azd0328) was −1.73%, the “YFP fluorescence quenching using TC-5619/Bradanicline (percent quench)” value (300 nM brd (TC-5619/Bradanicline)) was −10.93% and the “YFP fluorescence quenching using CNL001 (percent quench)” value [9] was −13.535%. For the same molecule, the “YFP fluorescence quenching using CNL001 (percent quench)” value [10] was −11.335%, the “YFP fluorescence quenching (percent quench)” value (1 uM CNL002) was −15.2% and the “YFP fluorescence quenching using ABT-126 (percent quench)” value (1 uM abt (ABT-126)) was −9.34%. For the same molecule, the “YFP fluorescence quenching using TC-5619/Bradanicline (percent quench)” value (1 uM brd (TC-5619/Bradanicline)) was −4.55%, the “YFP fluorescence quenching (percent quench)” value (10 uM ach (acetylcholine)) was −0.46% and the “YFP fluorescence quenching (percent quench)” value (30 uM CNL002) was −14%. The “YFP fluorescence quenching using AZD-0328 (percent quench)” value (30 uM azd0328) was 47.39%, the “YFP fluorescence quenching (percent quench)” value (100 uM ach (acetylcholine)) was −4.93% and the “YFP fluorescence quenching (percent quench)” value (1 mM ach (acetylcholine)) was −11.18%. The “YFP fluorescence quenching (percent quench)” value (3 mM ach (acetylcholine)) was −3.53%, the “YFP fluorescence quenching using Facinicline, 30 nM fac” value was 38.08 and the “YFP fluorescence quenching using Facinicline, 100 nM fac” value (ligand Facinicline 100 nM) was −14.37. For the same molecule, the “YFP fluorescence quenching using Facinicline, 300 nM fac” value was 19.41, the “YFP fluorescence quenching using Facinicline, 10 uM fac” value (ligand Facinicline 10 uM) was 67.33 and the “YFP fluorescence quenching using Facinicline, 30 uM fac” value was 79.67. For the same molecule, the “YFP fluorescence quenching using TC-6987, 1 uM tc6987” value was 31.9, the “YFP fluorescence quenching using TC-6987, 10 uM tc6987” value was 25.54 and the “YFP fluorescence quenching using TC-6987, 500 uM tc6987” value was 21.13.

B2: CODA535: engineered receptor: L131T, S172D in SEQ ID NO: 33 (protein)
chain: MRCSPGGVWLALAASLLHVSLQGEFQRKLYKELVKNYNPLERPVANDSQPLTVYFSLSLLQIMDVDEKNQVLTTNIWLQMSWTDHYLQWNVSEYPGVKTVRFPDGQIWKPDILLYNSADERFDATFHTNVTVNSSGHCQYLPPGIFKSSCPMDLKNFPMDVQTCKLKFGSWDYGGWSLDLQMQEADISGYIPNGEWDLVGIPGKRSERFYECCKEPYPDVTFTVTMRRRMGYYLIQMYIPSLLIVILSWISFWINMDAAPARVGLGITTVLTMTTQSSGSRASLPKVSYVKAIDIWMAVCLLFVFSALLEYAAVNFVSRQHKELLRFRRKRRHHKSPMLNLFQEDEAGEGRFNFSAYGMGPACLQAKDGISVKGANNSNTTNPPPAPSKSPEEMRKLFIQRAKKIDKISRIGFPMAFLIFNMFYWIIYKIVRREDVHNQ
modifications: synthetic sequence of chimeric LGIC
With B2 the “YFP fluorescence quenching using CNL001 (percent quench)” value [1] was 8.736%, the “YFP fluorescence quenching using CNL001 (percent quench)” value [2] was 24.572% and the “YFP fluorescence quenching using CNL001 (percent quench)” value [3] was 60.552%. For the same molecule, the “YFP fluorescence quenching using CNL001 (percent quench)” value [4] was 63.09%, the “YFP fluorescence quenching using TC-6683 (percent quench)” value (30 nM TC-6683) was −29.362% and the “YFP fluorescence quenching using CNL001 (percent quench)” value [5] was 73.242%. For the same molecule, the “YFP fluorescence quenching using CNL001 (percent quench)” value [6] was 73.889%, the “YFP fluorescence quenching using ABT-126 (percent quench)” value (50 nM abt (ABT-126)) was −11.09% and the “YFP fluorescence quenching using CNL001 (percent quench)” value [7] was 76.147%. For the same molecule, the “YFP fluorescence quenching using CNL001 (percent quench)” value [8] was 76.21%, the “YFP fluorescence quenching (percent quench)” value (100 nM CNL002) was 1.23% and the “YFP fluorescence quenching using ABT-126 (percent quench)” value (100 nM abt (ABT-126)) was −10.37%. For the same molecule, the “YFP fluorescence quenching using AZD-0328 (percent quench)” value (100 nM azd0328) was −7.02%, the “YFP fluorescence quenching using TC-6683 (percent quench)” value (300 nM TC-6683) was −28.954% and the “YFP fluorescence quenching using ABT-126 (percent quench)” value (300 nM abt (ABT-126)) was −4%. The “YFP fluorescence quenching using AZD-0328 (percent quench)” value (300 nM azd0328) was −0.48%, the “YFP fluorescence quenching using CNL001 (percent quench)” value [9] was 78.988% and the “YFP fluorescence quenching using CNL001 (percent quench)” value [10] was 78.818%. For the same molecule, the “YFP fluorescence quenching (percent quench)” value (1 uM CNL002) was 35.77%, the “YFP fluorescence quenching using ABT-126 (percent quench)” value (1 uM abt (ABT-126)) was 4.05% and the “YFP fluorescence quenching using TC-6683 (percent quench)” value (3 uM TC-6683) was −23.708%. For the same molecule, the “YFP fluorescence quenching (percent quench)” value (10 uM ach (acetylcholine)) was −12.24%, the “YFP fluorescence quenching (percent quench)” value (30 uM CNL002) was 68.29% and the “YFP fluorescence quenching using TC-6683 (percent quench)” value (30 uM TC-6683) was −23.431%. For the same molecule, the “YFP fluorescence quenching using AZD-0328 (percent quench)” value (30 uM azd0328) was 70.16%, the “YFP fluorescence quenching using TC-6683 (percent quench)” value (100 uM TC-6683) was −18.324% and the “YFP fluorescence quenching (percent quench)” value (100 uM ach (acetylcholine)) was −26.23%. For the same molecule, the “YFP fluorescence quenching (percent quench)” value (1 mM ach (acetylcholine)) was −1.16%, the “YFP fluorescence quenching (percent quench)” value (3 mM ach (acetylcholine)) was 2.97% and the “YFP fluorescence quenching using Facinicline, 30 nM fac” value was −21.36. For the same molecule, the “YFP fluorescence quenching using Facinicline, 300 nM fac” value was 4.17, the “YFP fluorescence quenching using Facinicline, 30 uM fac” value was 65.94 and the “YFP fluorescence quenching using TC-6987, 1 uM tc6987” value was −21.8. For the same molecule, the “YFP fluorescence quenching using TC-6987, 10 uM tc6987” value was −27.08 and the “YFP fluorescence quenching using TC-6987, 500 uM tc6987” value was −21.56.
